Experimental data from article PMC7705965 (Journal of Medicinal Chemistry, 2020).
Primed or numbered codes have the meaning given here. Where no end group is shown, it is not given here. [ ]: non-standard residue; d: D form. TAMRA = 5(6)-carboxytetramethylrhodamine; PEG6′ = [PEG]6, polyethylene glycol

Key:
[1] = molecular target: T1, α-cobratoxin (Naja kaouthia, UniProt P01391 1-71); test: fluorescence polarisation; conditions: both partners purified
[2] = molecular target: T1, α-cobratoxin; test: fluorescence polarisation; conditions: both partners purified; remark: listed apart in the source

T1 sequence (P01391 whole entry): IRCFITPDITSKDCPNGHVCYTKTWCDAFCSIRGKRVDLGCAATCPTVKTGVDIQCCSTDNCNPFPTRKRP

Binder	Kd [1] [µM]	Ki [1] [µM]	IC50 [2] [µM]
{TAMRA}-HAKTYMWDGWYMPTSH-NH2 [peptide 9 (TAMRA-HAKTYMWDGWYMPTSH-NH2)]	52	–	–
Ac-HAKTYMWDGWYMPTSH-NH2 [peptide 1 (Ac-HAKTYMWDGWYMPTSH-NH2)]	–	2	29
[PEG6′]YMWDGWYM-NH2 [peptide 12 ([PEG]6-YMWDGWYM-NH2)]	–	26	–
